From paper PMC10090120, “Cryo-EM structures of mitochondrial ABC transporter ABCB10 in apo and biliverdin-bound form” (Nature Communications, 2023)

Molecular target: the molecule itself
Test: cryo-EM structure; ABCB10 E659Q at ~4 mg/mL in 50 mM HEPES pH 7.5, 150 mM NaCl, 0.005% GDN, 0.0005% CHS, incubated with 1 mM biliverdin for 30 min and vitrified; BV-free (apo) and BV-bound maps from a single data set; C2 symmetry

B1: human ABCB10 (residues A152-A738) E659Q mutant (domain or fragment, UniProt Q9NRK6 152-738, looked up)
chain: AGLPEARKLLGLAYPERRRLAAAVGFLTMSSVISMSAPFFLGKIIDVIYTNPTVDYSDNLTRLCLGLSAVFLCGAAANAIRVYLMQTSGQRIVNRLRTSLFSSILRQEVAFFDKTRTGELINRLSSDTALLGRSVTENLSDGLRAGAQASVGISMMFFVSPNLATFVLSVVPPVSIIAVIYGRYLRKLTKVTQDSLAQATQLAEERIGNVRTVRAFGKEMTEIEKYASKVDHVMQLARKEAFARAGFFGATGLSGNLIVLSVLYKGGLLMGSAHMTVGELSSFLMYAFWVGISIGGLSSFYSELMKGLGAGGRLWELLEREPKLPFNEGVILNEKSFQGALEFKNVHFAYPARPEVPIFQDFSLSIPSGSVTALVGPSGSGKSTVLSLLLRLYDPASGTISLDGHDIRQLNPVWLRSKIGTVSQEPILFSCSIAENIAYGADDPSSVTAEEIQRVAEVANAVAFIRNFPQGFNTVVGEKGVLLSGGQKQRIAIARALLKNPKILLLDQATSALDAENEYLVQEALDRLMDGRTVLVIAHRLSTIKNANMVAVLDQGKITEYGKHEELLSKPNGIYRKLMNKQSFISA
notes: E659Q in the Walker-B motif; The vector adds a C-terminal TEV protease site before the FLAG and 10xHis tags; no cleavage is described; The model of ABCB10-apo covers residues 156-724 (528-532 missing), that of ABCB10-BV residues 154-724 (629-631 missing); also called ABCB10 E659Q; ABCB10-apo
In the case of B1, the “stoichiometry N” value is reported as 2.
